T1: matrix of insoluble elastin prepared from chicken aortic tissue (chicken, UniProt P07916 25-750)
T1 construct: mature; Insoluble cross-linked tissue matrix, not a defined soluble protein; also called chicken elastin; chicken elastin matrix
T1 sequence (looked up): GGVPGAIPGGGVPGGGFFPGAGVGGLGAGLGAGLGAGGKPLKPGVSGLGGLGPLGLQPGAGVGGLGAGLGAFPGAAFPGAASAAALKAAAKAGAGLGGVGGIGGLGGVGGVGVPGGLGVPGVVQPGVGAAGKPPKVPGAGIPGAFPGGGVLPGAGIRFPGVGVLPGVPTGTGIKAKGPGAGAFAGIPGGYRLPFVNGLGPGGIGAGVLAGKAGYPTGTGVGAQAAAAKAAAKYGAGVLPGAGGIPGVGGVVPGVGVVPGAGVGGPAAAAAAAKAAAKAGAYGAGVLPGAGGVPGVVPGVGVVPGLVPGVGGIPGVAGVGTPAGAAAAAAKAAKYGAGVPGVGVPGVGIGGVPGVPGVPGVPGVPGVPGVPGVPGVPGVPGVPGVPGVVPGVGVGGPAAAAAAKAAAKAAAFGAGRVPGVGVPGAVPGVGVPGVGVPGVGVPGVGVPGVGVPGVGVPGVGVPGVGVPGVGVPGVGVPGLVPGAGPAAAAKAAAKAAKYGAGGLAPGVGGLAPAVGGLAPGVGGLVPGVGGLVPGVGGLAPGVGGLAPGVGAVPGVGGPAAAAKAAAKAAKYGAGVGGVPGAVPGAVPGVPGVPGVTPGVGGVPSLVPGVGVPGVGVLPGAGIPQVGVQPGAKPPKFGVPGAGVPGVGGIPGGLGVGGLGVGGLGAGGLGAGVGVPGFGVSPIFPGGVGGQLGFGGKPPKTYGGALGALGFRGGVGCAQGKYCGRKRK

B1: MFU-2 of human elastin (other)
chain: FPGFGVGVGGIPGVAGVPGVGGVPGVGGVPGVGISPEAQAAAAAKAAKYGVGTPAAAAAKAAAKAAQFGLVPGVGVAPGVGVAPGVGVAPGVGLAPGVGVAPGVGVAPGVGVAPAIGPEAQAAAAAKAAKYGVGTPAAAAAKAAAKAAQFGLVPGVGVAPGVGVAPGVGVAPGVGLAPGVGVAPGVGVAPGVGVAPAIGP
notes: Tandem duplicate of MFU-1, expressed with techniques similar to those for MFU-1
B2: Minimal Functional Unit-1 (MFU-1) of human elastin (other)
chain: GAGGFPGFGVGVGGIPGVAGVPGVGGVPGVGGVPGVGISPEAQAAAAAKAAKYGVGTPAAAAAKAAAKAAQFGLVPGVGVAPGVGVAPGVGVAPGVGLAPGVGVAPGVGVAPGVGVAPAIGPGGVA
modifications: radioactively labeled valine and glycine (only in the chicken elastin experiments of Example 4)
notes: also called human elastin MFU-1; Fraction 1

What was measured:
[1] = biological target: the molecule itself; test: coacervation of MFU-2 in solution; self-association
[2] = biological target: T1, matrix of insoluble elastin prepared …; test: estimate from bound radiolabelled MFU-1, assuming a 6 nm cross-sectional diameter
Method: A matrix of insoluble elastin was prepared from chicken aortic tissue by a cyanogen bromide extraction method. This insoluble, non-human elastin matrix was incubated for 16 hours at 37° in phosphate-buffered saline, at pH 7.4, in the presence of radioactively labeled human MFU-1 prepared as described above. The tissue was then washed extensively with phosphate-buffered saline at pH 7.4.
Estimation of surface coverage assumed a cross-sectional diameter of the human MFU-1 of 6 nm. It was estimated that about 1–3 µg of human MFU-1 per mg chicken elastin matrix remained firmly associated with the insoluble matrix of chicken elastin.

Binder | binding result [1] | surface coverage of the chicken elastin matrix [2] [fold]
B1 | binds | 
B2 |  | ≤ 200

From patent US6489446 (HSC RESEARCH AND DEVELOPMENT LIMITED PARTNERSHIP, dated 2002)
